Measured values reported in article PMC10999833 (Molecular Biology and Evolution, 2024).
Values joined by “and” are separate entries in the source; they are usually repeats but may differ in a detail not shown here. Identical values can stand only once.

Target: the molecule itself
Test: SEC-MALS

B1: ancestor MBP-His6-J^981–1132 (wild-type bacteriophage λ J, C-terminal 152 amino acids, MBP-tagged) (domain or fragment, UniProt P03749 981-1132, looked up)
chain: NCTINGTLRAEKIVGDIVKAASAAFPRQRESSVDWPSGTRTVTVTDDHPFDRQIVVLPLTFRGSKRTVSGRTTYSMCYLKVLMNGAVIYDGAANEAVQVFSRIVDMPAGRGNVILTFTLTSTRHSADIPPYTFASDVQVMVIKKQALGISVV
stoichiometry N: 3 and 2
